Reference: paper PMC5632138 (Journal of molecular biology, 2017)
Where a chain is given by its changes, count along the chain named. One block for each binder: values may come before it.

Experiments:
[1] = biological target: ETV4 WT;MED25 ACID (human?;human, UniProt P43268;Q71SY5 1-484;391-553, |); test: EMSA
[2] = biological target: ETV4 Leu430Ala (UniProt P43268 1-484, L430A); test: EMSA
[3] = biological target: ETV4 Phe428Ala/Phe432Ala (UniProt P43268 1-484, F428A;F432A); test: EMSA
[4] = biological target: T1, MED25 ACID Arg466Glu (analyte) (human, UniProt Q71SY5 391-553, Arg466Glu); test: BLI
T1 sequence (looked up): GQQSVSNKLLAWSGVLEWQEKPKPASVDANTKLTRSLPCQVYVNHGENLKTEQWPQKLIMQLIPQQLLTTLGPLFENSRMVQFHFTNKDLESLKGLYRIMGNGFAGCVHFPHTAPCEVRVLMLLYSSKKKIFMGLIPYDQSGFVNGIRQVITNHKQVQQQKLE

[5] = biological target: T2, MED25 ACID Met523Glu (analyte) (human, UniProt Q71SY5 391-553, Met523Glu); test: BLI
T2 sequence (looked up): T1 sequence (looked up) with E76R, M133E

[6] = biological target: T3, MED25 ACID Leu514Glu (analyte) (human, UniProt Q71SY5 391-553, Leu514Glu); test: BLI
T3 sequence (looked up): T1 sequence (looked up) with E76R, L124E

[7] = biological target: T4, MED25 ACID Ile521Glu (analyte) (human, UniProt Q71SY5 391-553, Ile521Glu); test: BLI
T4 sequence (looked up): T1 sequence (looked up) with E76R, I131E

[8] = biological target: T5, MED25 ACID Gln430Glu (analyte) (human, UniProt Q71SY5 391-553, Gln430Glu); test: BLI
T5 sequence (looked up): T1 sequence (looked up) with Q40E, E76R

[9] = biological target: T6, MED25 ACID Tyr487Ser (analyte) (human, UniProt Q71SY5 391-553, Tyr487Ser); test: BLI
T6 sequence (looked up): T1 sequence (looked up) with E76R, Y97S

[10] = biological target: T7, MED25 ACID His474Glu (analyte) (human, UniProt Q71SY5 391-553, His474Glu); test: BLI
T7 sequence (looked up): T1 sequence (looked up) with E76R, H84E

[11] = biological target: T8, MED25 ACID Lys518Ala/Lys519Ala/Lys520Ala (analyte) (human, UniProt Q71SY5 391-553, Lys518Ala | Lys519Ala | Lys520Ala); test: BLI
T8 sequence (looked up): T1 sequence (looked up) with E76R, K128A, K129A, K130A

[12] = biological target: T9, MED25 ACID (residues 391–553), from pET28 (human, UniProt Q71SY5 391-553); test: NMR titration
T9 sequence (looked up): T1 sequence (looked up) with E76R

Chain of ETV4 WT;MED25 ACID (P43268 whole entry, one chain of several): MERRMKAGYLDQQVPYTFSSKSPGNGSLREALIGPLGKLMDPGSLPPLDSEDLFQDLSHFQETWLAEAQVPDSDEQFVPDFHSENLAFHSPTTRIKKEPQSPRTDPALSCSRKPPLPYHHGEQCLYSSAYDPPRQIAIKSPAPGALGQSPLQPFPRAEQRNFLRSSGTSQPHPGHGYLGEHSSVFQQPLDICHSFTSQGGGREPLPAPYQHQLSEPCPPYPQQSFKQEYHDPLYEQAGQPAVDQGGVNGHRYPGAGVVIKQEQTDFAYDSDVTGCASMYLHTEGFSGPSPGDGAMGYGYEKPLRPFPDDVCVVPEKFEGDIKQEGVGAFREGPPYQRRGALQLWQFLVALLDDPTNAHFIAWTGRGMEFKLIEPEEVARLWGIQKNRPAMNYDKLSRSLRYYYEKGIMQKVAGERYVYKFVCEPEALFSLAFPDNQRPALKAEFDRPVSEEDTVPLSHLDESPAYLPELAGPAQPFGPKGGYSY
Chain of ETV4 Phe428Ala/Phe432Ala (P43268 whole entry F428A/F432A): as the sequence (P43268 whole entry, one chain of several) above, with F428A, F432A counted along it
Chain of ETV4 Leu430Ala (P43268 whole entry L430A): as the sequence (P43268 whole entry, one chain of several) above, with L430A counted along it

B1: 27-bp consensus ETS duplex (dsDNA)
DNA 1: TCGACGGCCAAGCCGGAAGTGAGTGCC
DNA 2: TCGAGGCACTCACTTCCGGCTTGGCCG
- Kd [1]: 2.1 ± 0.5 nM
- Kd [2]: 1.9 ± 0.4 nM
- Kd [3]: 3.7 ± 0.8 nM

- binding result [4]: binds
- binding result [5]: binds
- binding result [6]: binds
- binding result [7]: binds
- binding result [8]: binds
- binding result [9]: binds
- binding result [10]: binds
- binding result [11]: binds
B2: ETV4^337–436 (DNA-binding domain), biotinylated ligand for biolayer interferometry (domain or fragment, UniProt P43268 337-436, looked up)
chain: RRGALQLWQFLVALLDDPTNAHFIAWTGRGMEFKLIEPEEVARLWGIQKNRPAMNYDKLSRSLRYYYEKGIMQKVAGERYVYKFVCEPEALFSLAFPDNQ
modifications: biotin (biotinylated; D-biotin added at the induction point)

- binding result [12]: binds
B3: ETV4^337–436 (DNA-binding domain), from pET28 (domain or fragment, UniProt P43268 337-436, looked up)
chain: B2 chain
